Experimental data reported in PMC9646764 (Nature Communications, 2022).

Biological target: TcdB4.2 (full-length recombinant toxin B variant 4.2) (Clostridioides difficile)
Assay: BLI; as a1, KD calculated with the BLItz system software from the indicated concentrations (Supplementary Fig. 7); KD called estimated
Conditions: both partners purified

B1: mTFPI-Fc (Fc-tagged mouse TFPI) (Fc fusion)
chain: LSEEADDTDSELGSMKPLHTFCAMKADDGPCKAMIRSYFFNMYTHQCEEFIYGGCEGNENRFDTLEECKKTCIPGYEKTAVKAASGAERPDFCFLEEDPGLCRGYMKRYLYNNQTKQCERFVYGGCLGNRNNFETLDECKKICENPVHSPSPVNEVQMSDYVTDGNTVTDRSTVNNIVVPQSPKVPRRR
notes: source: Expi293F, transfected, purified from culture medium as His-tagged protein
Kd: ~63 nM
